# Assay results taken from PMC10083539, “Structural insights into plasmalemma vesicle-associated protein (PLVAP): Implications for vascular endothelial diaphragms and fenestrae” (Proceedings of the National Academy of Sciences of the …, 2023).
# B1: PLVAP CC2, residues 270 to 395 (domain or fragment, mouse, UniProt Q91VC4 270-395, looked up)
# chain: ESLPGIMTTKIEELARGLRAGIERVTRENAELRRQKLELERAAQAAQEARARAGTEAQARETQLRAECARQTQLALEEKAALRAQRDNLERELEARKRELEQLRTEVDVRISALDTCVKAKSLPAV
# notes: PLVAP, mouse, coiled-coil segment CC2, residues 270 to 395; also called pXG52; source: E. coli SHuffle T7, purified (IMAC, 3C protease cleavage, IMAC, SEC); not shown: thioredoxin (E. coli TrxA), N-terminal, cleaved; 8xHis, N-terminal, cleaved
# B2: PLVAP CC1, residues 141 to 229 (domain or fragment, mouse, UniProt Q91VC4 141-229, looked up)
# chain: QCQEQLKEVNKTCEALLFKLGEKVKTLEMEVAKEKAVCSKDKESLLAGKRQTEEQLEACGKARERQQQEQQVTEENLRKVQSLCIPLDQ
# notes: PLVAP, mouse, coiled-coil segment CC1, residues 141 to 229 (89 amino acids); Parallel dimer with five interchain disulfide bonds; also called pPMS1170; source: E. coli SHuffle T7, purified (IMAC, 3C protease cleavage, IMAC, SEC); not shown: thioredoxin (E. coli TrxA), N-terminal, cleaved; 8xHis, N-terminal, cleaved
# B3: MECA-32, anti-PLVAP monoclonal antibody (antibody, V domains shown)
# VH: EVQLVESGGGLVQPGRSMKLSCAASGFTFSDYYMAWVRQAPMKGLKWVASISYEGNKTYYGDSVKGRFTISRDNAKSILYLQMNSLKSEDTATYYCARQSYSSYIFDYWGQGVMVTVSS
# VL: DIQMTQTPSSMSASLGERVTISCGTSQGVNIFLNWYQQKPDGTIKPLIFFTSHLQSGVPSRFSGSGSGTAYSLTISSLEPEDFAVYYCQQYDSSPPTFGGGTKLYLK
# notes: heavy-chain constant region of the hybridoma antibody; light-chain constant region of the hybridoma antibody; the blots used the bought antibody of the same clone name; also called rat mAb MECA-32 (553849; BD Biosciences); source: bought: BD Biosciences (553849)
# B4: MECA-32/hIgG, engineered MECA-32 antibody with human constant regions (antibody, V domains shown)
# VH: B3 VH
# VL: B3 VL
# notes: mature VH of MECA-32; human heavy-chain IgG constant region (CH1, CH2 and CH3) with an HRV 3C protease cleavage site between CH1 and CH2; mature VL of MECA-32; human light-chain constant region (CL); Chimeric IgG; held on protein A-coated wells in the assay; also called MECA-32/IgG; engineered MECA-32 Ab; source: HEK/293T, cotransfected heavy- and light-chain plasmids, purified from conditioned …
# B5: PLVAP extracellular domain (full-length ECD), residues 52 to 438 (domain or fragment, mouse, UniProt Q91VC4 52-438, looked up)
# chain: HATTESSLRATEIRADSLYSQVVGLSASQANLSKQLNISLLVKETVMQQLLTTRREMERINASFRQCQGDLITYINYNRFIAAIILSEKQCQEQLKEVNKTCEALLFKLGEKVKTLEMEVAKEKAVCSKDKESLLAGKRQTEEQLEACGKARERQQQEQQVTEENLRKVQSLCIPLDQEKFQADVLSAWRDSLIYRTLETLPYHYQLMPEYASLRRTCESLPGIMTTKIEELARGLRAGIERVTRENAELRRQKLELERAAQAAQEARARAGTEAQARETQLRAECARQTQLALEEKAALRAQRDNLERELEARKRELEQLRTEVDVRISALDTCVKAKSLPAVPPRVSGPPPNPPPIDPASLEEFKKRILESQRLPVVNPAAQPSG
# notes: plasmalemma vesicle-associated protein (PLVAP), mouse, extracellular domain, residues 52 to 438; also called PLVAP ECD; pXG61; source: E. coli SHuffle T7, purified (IMAC, 3C protease cleavage, IMAC, SEC); not shown: thioredoxin (E. coli TrxA), N-terminal, cleaved; 8xHis, N-terminal, cleaved
# What was measured:
# [1] = molecular target: the molecule itself; experiment: SDS-PAGE, reducing vs nonreducing; purified fragments from E. coli SHuffle after 3C cleavage; electrophoretic mobilities in reducing and nonreducing gels; shows disulfide-linked dimers
# [2] = molecular target: the molecule itself; experiment: crystal structure; PLVAP CC1; crystal form I (P212121, 0.2 M sodium malonate pH 5.0, 20% PEG3350, sulfur SAD) and crystal form II (I212121, 0.1 M sodium acetate pH 5.0, 15% PEG 4000), 21 °C
# [3] = molecular target: T1, hGH fusion with PLVAP ECD from amino acid 104 to the C terminus (fusion protein A of Fig. 9) (Mus musculus, UniProt Q91VC4); experiment: far-Western, overlay or dot blot; immunoblot: hGH-PLVAP deletion fusions in conditioned medium resolved by SDS-PAGE, blots probed with mAb MECA-32 and rabbit anti-hGH, fluorescent secondary antibodies; settings: one partner purified
# T1 construct: PLVAP, mouse; N terminus at amino acid 104 (TRREME...), extends to the C terminus of PLVAP; source: HEK/293T, transiently transfected, secreted, in serum-free conditioned medium; not shown: hGH (human growth hormone), N-terminal, kept
# [4] = molecular target: T2, hGH fusion with PLVAP ECD, N-terminal deletion C (fusion protein C of Fig. 9) (Mus musculus, UniProt Q91VC4); experiment: as above; settings: one partner purified
# T2 construct: PLVAP, mouse; extends to the C terminus of PLVAP; Limit may be off by one residue; source: HEK/293T, transiently transfected, secreted, in serum-free conditioned medium; not shown: hGH (human growth hormone), N-terminal, kept
# [5] = molecular target: T3, hGH fusion with PLVAP ECD from amino acid 143, C-terminal deletion G (fusion protein G of Fig. 9) (Mus musculus, UniProt Q91VC4); experiment: as above; settings: one partner purified
# T3 construct: PLVAP, mouse; N terminus at amino acid 143 (QEQLKE...); Limit may be off by one residue; source: HEK/293T, transiently transfected, secreted, in serum-free conditioned medium; not shown: hGH (human growth hormone), N-terminal, kept
# [6] = molecular target: T4, AP–PLVAP CC2, alkaline phosphatase fused to PLVAP CC2 (Mus musculus, UniProt Q91VC4); experiment: ELISA; MECA-32/hIgG immobilised on protein A-coated 96-well plates (4 °C overnight); conditioned media with AP-PLVAP CC2, 25 °C, 1 h; 10 mM HEPES pH 7.5, 0.15 M NaCl, 0.05% Tween-20 washes; colorimetric AP reaction (BluePhos); settings: one partner purified
# T4 construct: PLVAP, mouse, CC2; The plasmid codes for AP followed by a Myc tag and an 8xHis tag; source: HEK/293T, in conditioned media
binder,measurement,setting,value
B1,binding result,[1],binds
B2,stoichiometry N,[2],2
B3,binding result,[3],binds
same,binding result,[4],binds
same,binding result,[5],binds
B4,binding result,[6],binds
B5,binding result,[1],binds
